# Target: zebrafish Ctla-4, HA-tagged (pCDNA3.1-HA-Ctla-4) (zebrafish)
# Experiment: Western blot under non-reducing and reducing conditions
substance,measurement,value
"zebrafish Ctla-4, HA-tagged (pCDNA3.1-HA-Ctla-4) (receptor)",stoichiometry N,2

# From paper doi:10.1101/2024.07.24.604955
